“Also recorded” adds a separate entry of the source. Where no end group is shown, it is not given here.
Experiments:
[1] = test system: JIMT-1 cells; experiment: Cas9-GFP delivery with Lipofectamine CRISPRMAX transfection reagent; format: cell-based
Description: To assess whether the enhanced intracellular delivery conferred by bile acid-NLS moieties is compatible with other delivery technologies, a delivery experiment in JIMT-1 cells was performed using Lipofectamine™ CRISPRMAX™ Cas9 Transfection Reagent (Thermo Fisher Scientific) according to the manufacturer's protocol, except that the cargo was Cas9-GFP alone or conjugated to/mixed with different bile acid-NLS moieties. The results are shown in Table 3 with GFP fluorescence values being normalized to that of cells incubated with the unconjugated cargo/transfection reagent alone (Cas9-GFP alone). […] Fluorescence microscopy experiments in live cells confirmed that the Cas9-GFP cargoes were successfully delivered to the nucleus of JIMT-1 cells (data not shown).

[2] = test system: BMDCs; experiment: Antigen-presentation assay using the B3Z reporter system, BMDCs; format: cell-based, mouse; conditions: BMDCs, OVA admixed, best conjugate: antigen ratio
Description: Mouse bone marrow derived DCs (BMDCs) were generated by flushing the whole marrow from mouse femurs using RPMI™ 1640 supplemented with 10% fetal bovine serum (FBS), 50 U/mL Penicillin-Streptomycin, 2 mM L-glutamine, 10 mM HEPES, 1% MEM Non-essential Amino Acids, 1 mM Sodium Pyruvate, 0.5 mM beta-mercaptoethanol. Following red blood cell lysis, cells were then cultured in media supplemented with 50 ng/mL murine recombinant GM-CSF. The media was changed on days 2, 4, 6 and 8. On day 9, the media was replaced to include recombinant murine GM-CSF and LPS from Escherichia coli 0111 (1 ng/mL) to stimulate DC maturation. Mature DCs were assessed by flow cytometry for their surface expression of CD3, CD19, NK1.1, CD11c, CD80, CD86, and I-A^b.
(§1) Various bile acid-NLS conjugates were screened using the B3Z reporter system. The B3Z cell line is a T-cell hybridoma specific for the H2-K^b-[…] complex. Once activated via its TCR, the LacZ reporter gene (under the NFAT promoter control) is expressed. Briefly, 1.5×10^5 BMDCs or 2.5×10^5 MSCs were co-cultured with 5×10^4 B3Z cells treated with the mixing conditions of ovalbumin (OVA) and bile acid-NLS conjugates for overnight at 37° C. with 5% CO2. The following day, all cells were washed twice with PBS (pH 7.4), and the cell pellets were lysed by adding 100 μL of a lysis buffer containing 0.15 mM chlorophenol red-beta-D-galactopyranoside (CPRG) substrate (Calbiochem, La Jolla, CA), 0.125% NP40 (EMD Sciences, La Jolla, CA), 9 mM MgCl2 (Aldrich, USA) and 100 mM 2-mercaptoethanol in PBS. After a 5- or 24-h incubation at 37° C., absorbance was taken at 570 nm with 636 nm as the reference wavelength. For these experiments, OVA was re-suspended in PBS (pH 7.3) at 5-10 mg/mL. The different bile acid-NLS conjugates were re-suspended in H2O at 10 mg/mL. Bile acid-NLS conjugate: antigen mixtures were prepared at different molar ratios according to Table 1.
Variants of CA-SV40NLS were synthesized in order to explore structure-activity relationships relating to the antigen cross-presentation enhancing activity observed for this conjugate, and therefore a measure of antigen/cargo delivery. More particularly, conjugates having different bile acids conjugated to the SV40NLS peptide (SEQ ID NO: 1) were synthesized and their effect on antigen presentation was evaluated by using the B3Z reporter system with the OVA antigen as described in Example 1. […] In FIG. 11, no increase in antigen cross-presentation in BMDCs over the antigen alone (“OVA”) was observed when OVA was mixed with either unconjugated cholic acid (“CA”) or SV40NLS peptide (“SV40NLS”), although lower sensitivity of the B3Z reporter system as compared to the OT-I CD8 T cell-based assay may have been a factor.
(§2) Further variants of CA-SV40NLS were synthesized in which the SV40NLS peptide was replaced with peptides comprising other NLS's (Table 5) and the antigen presentation activities of the CA-NLS peptide conjugates were evaluated using the B3Z reporter system as described in Example 1. The following conjugate: antigen molar ratios were tested for each conjugate: 2:1, 4:1, 8:1, 12:1 and 22:1. The results in FIGS. 12-15 compare the antigen presentation activities of different conjugates at the conjugate: antigen ratio that yielded the highest B3Z response (OD570) for that conjugate.

[3] = test system: cross-presenting mesenchymal stromal cell line (cpMSC); experiment: Antigen-presentation assay using the B3Z reporter system, cross-presenting MSC line; format: cell-based; conditions: cpMSCs, OVA admixed, vs OVA alone or OVA mixed with CA-SV40NLS
Description: as §1, §2

[4] = test system: WT MSCs; experiment: Antigen cross-presentation assay on wild-type MSCs with B3Z cells; format: cell-based, mouse; conditions: WT MSCs pulsed with OVA with or without conjugate
Description: In order to generate Bone marrow (BM)-derived mouse MSCs, the femurs of 6-8-week-old female Balb/c or C57BL/6 mice were isolated and flushed with Alpha Modification of Eagle's Medium (AMEM) supplemented with 10% FBS and 50 U/mL Penicillin-Streptomycin in a 10 cm cell culture dish, then incubated at 37° C. Two days later, non-adherent cells were removed and the media replaced every 3 to 4 days until plastic-adherent cells reached 80% confluency. The generated cells were detached using 0.05% trypsin and expanded until a uniform MSC population was obtained. The generated MSCs were validated for their innate phenotype by flow-cytometry for the expression of CD44, CD45, CD73, and CD90. The cells were frozen in liquid nitrogen until use.
To assess cross-presentation assay, 25×10^3 cells MSCs were seeded per well in 24-well plate then pulsed with steroid acid peptide-conjugated for 6 h admixed with OVA. At the end of the pulsing period, the cells were washed to remove excess antigen then 5×10^4 B3Z cells. The cells were incubated for 17-19 hours prior to their lysis and incubation for another 4-6 hours at 37° C. with a CPRG solution. The optical density signal was detected at wavelength 570 using a SynergyH1™ microplate reader (Biotek, Winooski, VT, United States).
To determine whether a similar effect occurs in wild type (WT) (i.e., non-engineered) MSCs, BM-derived MSCs (Example 1) were used instead in the same cross presentation assay with B3Z responder cells.

[5] = test system: DC2.4 cells; experiment: eGFP-Gal3 assessment of damaged endosomes by microscopy; format: cell-based, murine; conditions: 0.1 mg/mL cargo, 3 h, 37° C.
Description: For this assay, 15×10^3 DC2.4 cells were seeded on a sterile cover slide in a 24-well plate. Two days following transfection of DC2.4 cells with the eGFP-hGal3 mammalian expression vector, 0.1 mg/mL of cargo was added to cells then incubated for 3 h at 37° C. The cells were then washed twice to remove excess protein prior to being mounted on a slide. The slides were viewed by fluorescent microscopy (Nikon, Eclipse™ Ti2-U) and the results analyzed using the ImageJ™ software.
A GFP-galectin-3 (GFP-Gal3) based detection system was utilized to explore the effect on endosomal membranes following intracellular delivery of steroid acid-peptide-conjugated cargoes. […] When expressed under normal conditions, Gal3 is evenly distributed across the cytosol but disruption of endosomal membranes allows Gal3 to access and bind luminal glycoproteins. We thus transiently transfected the murine dendritic cell line DC2.4 with a construct expressing Gal3 fused to enhanced green fluorescent protein (eGFP-Gal3). Two days later, DC2.4 cells were incubated with 0.1 mg/mL of either unconjugated OVA cargo or [CA-SV40]-OVA conjugated cargo for 3 h at 37° C. and the cells were observed by fluorescent microscopy.

[6] = Intrinsic tryptophan fluorescence (ITF) after thermal stress; format: physicochemical; conditions: 80° C., ten minutes, 0.8 mg/mL in PBS
Description: An Applied Photophysics (Leatherhead, Surrey, UK) Chirascan™ Q100 circular dichroism (CD) spectrometer was used for intrinsic tryptophan fluorescence (ITF) analysis and a VWR digital heatblock (Radnor, PA) was used for dry block temperature incubations. The Chirascan™ Q100 autosampler rack cooling system was used for all 4° C. incubations. Data was analyzed using MATLAB™ software (Natick, MA). Briefly, samples were removed from storage at −20° C. and allowed to equilibrate to room temperature. Samples were then diluted to 0.8 mg/mL in PBS from stock concentrations in the range of 4 to 5 mg/mL. Diluted samples were then analyzed for ITF without exposure to thermal stress (Native) or after ten minutes of thermal stress by dry block incubation. An aliquot of each diluted sample was incubated at 4° C., a second aliquot was incubated at 37° C., while a third aliquot was incubated at 80° C. BSA, diluted to 0.8 mg/mL, was included with the samples under each of the thermal conditions described above. All samples were re-equilibrated to room temperature after incubation. ITF Analysis was performed in […] by excitation at 280 nm with an emission scan range of 200-600 nm with a bandwidth of 1.0 nm, a Time-per point of 1 s, and a Step of 0.5. The triplicate spectra were blank subtracted, averaged, and converted from units of mdeg to relative fluorescence intensity using MATLAB software. […]

| Molecule | increase in intracellular Cas9-GFP delivery vs Cas9-GFP/transfection reagent alone [1] [fold] | antigen-presentation activity of cholic acid-NLS peptide conjugates (B3Z response) [2] | antigen-presentation activity of cholic acid-NLS peptide conjugates (B3Z response) [3] | OVA cross presentation by WT MSCs (B3Z) [4] | eGFP-Gal3 marker pattern (endosomal membrane disruption) [5] | ITF spectral change after thermal stress (unfolding) [6] |
| --- | --- | --- | --- | --- | --- | --- |
| CA-HuR: cholic acid conjugated to HuR NLS peptide CGRFSPMGVDHMSGLSGVNVPG (SEQ ID NO: 13) (not fully specified (N-terminus); also: cholic acid conjugate, site not given here) | 17 | high antigen presentation activity | strikingly high antigen-presentation activity |  |  |  |
| OVA: albumin from chicken egg white, unconjugated cargo/antigen (protein, UniProt P01012 2-386, looked up) Ovalbumin: GSIGAASMEFCFDVFKELKVHHANENIFYCPIAIMSALAMVYLGAKDSTRTQINKVVRFDKLPGFGDSIEAQCGTSVNVHSSLRDILNQITKPNDVYSFSLASRLYAEERYPILPEYLQCVKELYRGGLEPINFQTAADQARELINSWVESQTNGIIRNVLQPSSVDSQTAMVLVNAIVFKGLWEKAFKDEDTQAMPFRVTEQESKPVQMMYQIGLFRVASMASEKMKILELPFASGTMSMLVLLPDEVSGLEQLESIINFEKLTEWTSSNVMEERKIKVYLPRMKMEEKYNLTSVLMAMGITDVFSSSANLSGISSAESLKISQAVHAAHAEINEAGREVVGSAEAGVDAASVSEEFRADHPFLFCIKHIATNAVLFFGRCVSP |  |  |  | poorly cross presented | remained cytosolic; also recorded: diffuse cytosolic pattern | complete denaturation |
| 50×-cOVA: OVA conjugated with a 50× molar excess of CA-SV40 NLS, about eight moieties per OVA (conjugate, UniProt P01012 2-386, looked up, about eight CA-SV40 NLS conjugates, OVA conjugated with a 50× molar excess of CA-SV40 NLS, about eight moieties per OVA) Ovalbumin: GSIGAASMEFCFDVFKELKVHHANENIFYCPIAIMSALAMVYLGAKDSTRTQINKVVRFDKLPGFGDSIEAQCGTSVNVHSSLRDILNQITKPNDVYSFSLASRLYAEERYPILPEYLQCVKELYRGGLEPINFQTAADQARELINSWVESQTNGIIRNVLQPSSVDSQTAMVLVNAIVFKGLWEKAFKDEDTQAMPFRVTEQESKPVQMMYQIGLFRVASMASEKMKILELPFASGTMSMLVLLPDEVSGLEQLESIINFEKLTEWTSSNVMEERKIKVYLPRMKMEEKYNLTSVLMAMGITDVFSSSANLSGISSAESLKISQAVHAAHAEINEAGREVVGSAEAGVDAASVSEEFRADHPFLFCIKHIATNAVLFFGRCVSP |  |  |  |  |  | partial reduction in peak intensity |

— patent US20250049914A1, “STEROID ACID-PEPTIDE BASED INTRACELLULAR CARGO DELIVERY” (DEFENCE THERAPEUTICS INC., priority 2021, published 2025)
